Consider three proteins from patent US20240150402.

Data set [1] deals with pool SMP17.
The target in data set [2] is Final pools of substrates selected with recombinant human matriptase-1.
The target in data set [3] is activatable antibodies comprising substrates selected for cleavage by matriptase (5 substrates tested), having the 3954 mask and C225v5 variant of cetuximab.
The target of data set [4] is activatable antibodies comprising substrates selected for cleavage by uPA and matriptase (7 substrates tested), having the 3954 mask and C225v5 variant of cetuximab.

B1: Human tPA (protein)
chain: SYQVICRDEKTQMIYQQHQSWLRPVLRSNRVEYCWCNSGRAQCHSVPVKSCSEPRCFNGGTCQQALYFSDFVCQCPEGFAGKCCEIDTRATCYEDQGISYRGTWSTAESGAECTNWNSSALAQKPYSGRRPDAIRLGLGNHNYCRNPDRDSKPWCYVFKAGKYSSEFCSTPACSEGNSDCYFGNGSAYRGTHSLTESGASCLPWNSMILIGKVYTAQNPSAQALGLGKHNYCRNPDGDAKPWCHVLKNRRLTWEYCDVPSCSTCGLRQYSQPQFRIKGGLFADIASHPWQAAIFAKHRRSPGERFLCGGILISSCWILSAAHCFQERFPPHHLTVILGRTYRVVPGEEEQKFEVEKYIVHKEFDDDTYDNDIALLQLKSDSSRCAQESSVVRTVCLPPADLQLPDWTECELSGYGKHEALSPFYSERLKEAHVRLYPSSRCTSQHLLNRTVTDNMLCAGDTRSGGPQANLHDACQGDSGGPLVCLNDGRMTLVGIISWGLGCGQKDVPGVYTKVTNYLDWIRDNMRP
Consider B1, for which, in data set [1], the “cleavage (flow cytometry of displayed substrate pool)” value is reported as “resistance to tPA”. Also, the “cleavage (flow cytometry of displayed substrate pools)” value in data set [2] is reported as “but not by tPA or plasmin”.

B2: Human plasmin (protein)
chain: KVYLSECKTGNGKNYRGTMSKTKNGITCQKWSSTSPHRPRFSPATHPSEGLEENYCRNPDNDPQGPWCYTTDPEKRYDYCDILECEEECMHCSGENYDGKISKTMSGLECQAWDSQSPHAHGYIPSKFPNKNLKKNYCRNPDRELRPWCFTTDPNKRWELCDIPRCTTPPPSSGPTYQCLKGTGENYRGNVAVTVSGHTCQHWSAQTPHTHNRTPENFPCKNLDENYCRNPDGKRAPWCHTTNSQVRWEYCKIPSCDSSPVSTEQLAPTAPPELTPVVQDCYHGDGQSYRGTSSTTTTGKKCQSWSSMTPHRHQKTPENYPNAGLTMNYCRNPDADKGPWCFTTDPSVRWEYCNLKKCSGTEASVVAPPPVVLLPDVETPSEEDCMFGNGKGYRGKRATTVTGTPCQDWAAQEPHRHSIFTPETNPRAGLEKNYCRNPDGDVGGPWCYTTNPRKLYDYCDVPQCAAPSFDCGKPQVEPKKCPGRVVGGCVAHPHSWPWQVSLRTRFGMHFCGGTLISPEWVLTAAHCLEKSPRPSSYKVILGAHQEVNLEPHVQEIEVSRLFLEPTRKDIALLKLSSPAVITDKVIPACLPSPNYVVADRTECFITGWGETQGTFGAGLLKEAQLPVIENKVCNRYEFLNGRVQSTELCAGHLAGGTDSCQGDSGGPLVCFEKDKYILQGVTSWGLGCARPNKPGVYVRVSRFVTWIEGVMRNN
As for B2, the “cleavage (flow cytometry of displayed substrate pools)” value in data set [2] was “but not by tPA or plasmin”.

B3: Human matriptase-1 (protein)
chain: GSDEKDCDCGLRSFTRQARVVGGTDADEGEWPWQVSLHALGQGHICGASLISPNWLVSAAHCYIDDRGFRYSDPTQWTAFLGLHDQSQRSAPGVQERRLKRIISHPFFNDFTFDYDIALLELEKPAEYSSMVRPICLPDASHVFPAGKAIWVTGWGHTQYGGTGALILQKGEIRVINQTTCENLLPQQITPRMMCVGFLSGGVDSCQGDSGGPLSSVEADGRIFQAGVVSWGDGCAQRNKPGVYTRLPLFRDWIKENTGV
On to B3, for which the kcat/KM entry in data set [3] is on record as “kcat/KM values ranging from about 6,500 to 100,000 M^-1s^-1 for matriptase (5 substrates tested)”; in data set [4], “from about 3,000 to 100,000 M^-1s^-1 for matriptase (7 substrates tested)”. Further, in data set [2], the “cleavage (flow cytometry of displayed substrate pools)” value is “The pools were cleaved by matriptase-1”.
